Source: publication doi:10.1101/2023.12.15.571532 (bioRxiv, 2023)

B1: RelB antitoxin, recombinant His-tagged (natural protein)
chain: MAVVPLGEVRNRLSEYVAEVELTHERITITRHGHPAAVLISADDLASIEETLEVLRTPGASEAIREGLADVAAGRFVSNDEIRNRYTAR
B2: RelF antitoxin, recombinant His-tagged (natural protein)
chain: MRILPISTIKGKLNEFVDAVSSTQDQITITKNGAPAAVLVGADEWESLQETLYWLAQPGIRESIAEADADIASGRTYGEDEIRAEFGVPRRPH
B3: RelJ antitoxin, recombinant His-tagged (natural protein)
chain: MSISASEARQRLFPLIEQVNTDHQPVRITSRAGDAVLMSADDYDAWQETVYLLRSPENARRLMEAVARDKAGHSAFTKSVDELREMAGGEE

Molecular target: the molecule itself
Experiment: native gel or EMSA

| Protein | binding result | stoichiometry N |
| --- | --- | --- |
| B1 | binds |  |
| B2 |  | 4 |
| B3 |  | 4 |
